{"source": "paper PMC8073977", "about": "“Structural Basis for the C-Terminal Domain of Mycobacterium tuberculosis Ribosome Maturation Factor RimM to Bind Ribosomal Protein S19” (Biomolecules, 2021)", "binders": {"B1": {"name": "C-terminal domain of RimM from Mycobacterium tuberculosis (MtbRimMCTD, residues 101-176), wild type (domain or fragment)", "chain": "DTYYDHQLVGLMVQTATGEGVGVVTEVVHTAAGELLAVKRDSDEVLVPFVRAIVTSVSLDDGIVEIDPPHGLLNLE", "notes": "A starting Met stands before D101 (Nde I site); Surmise: pET-22b with Xho I adds Leu-Glu before the His6 tag; Theoretical Mw of the recombinant protein printed as 9.28 kDa; 15N-labelled in the NMR titrations, unlabelled in SPR; also called WT MtbRimMCTD; not shown: His6, C-terminal, kept"}, "B2": {"name": "MtbRimMCTD D105A (domain or fragment)", "chain": "B1 chain with D5A", "notes": "Same limits and tag as m1; also called MtbRimM D105A; not shown: His6, C-terminal, kept"}, "B3": {"name": "MtbRimMCTD E126A (domain or fragment)", "chain": "B1 chain with E26A", "notes": "Same limits and tag as m1; not shown: His6, C-terminal, kept"}, "B4": {"name": "MtbRimMCTD H129A (domain or fragment)", "chain": "B1 chain with H29A", "notes": "as for B3"}, "B5": {"name": "MtbRimMCTD E144A (domain or fragment)", "chain": "B1 chain with E44A", "notes": "as for B3"}}, "biological_target": "T1, Ribosomal protein S19 from Mycobacterium tuberculosis (MtbS19, residues 1-93) (Mycobacterium tuberculosis strain H37Rv, UniProt P9WH45 1-93)", "T1 construct": "30S ribosomal protein S19, M. tuberculosis H37Rv, residues 1-93; pET-28a with thrombin-cleavable N-terminal His6-tag; Surmise: a few vector residues remain at the N-terminus after thrombin cleavage; In PDB 5V93 residues 84-93 of S19 are absent; not shown: His6, N-terminal, cleaved", "T1 sequence (P9WH45 whole entry, the tested form may be a part)": "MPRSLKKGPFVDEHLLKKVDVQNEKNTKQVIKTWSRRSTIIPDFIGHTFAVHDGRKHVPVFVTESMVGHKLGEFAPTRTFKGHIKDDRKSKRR", "test": "SPR; Biacore T200, 298 K; […]; 20 mM potassium phosphate pH 7.2, 100 mM KCl; […]", "conditions": "both partners purified", "note": "Numbering of substitutions follows the chain as printed. Names may count otherwise."}
{"binder": "B1", "values": [{"measurement": "Kd", "result": 2.16, "unit": "µM"}]}
{"binder": "B2", "values": [{"measurement": "Kd", "result": 7.06, "unit": "µM"}]}
{"binder": "B3", "values": [{"measurement": "binding result", "result": "binds"}]}
{"binder": "B4", "values": [{"measurement": "Kd", "result": 12.7, "unit": "µM"}]}
{"binder": "B5", "values": [{"measurement": "binding result", "result": "binds"}]}
